Measured values reported in patent publication US20220144911A1 (UAB RESEARCH FOUNDATION, published 2022).

How the values were obtained:
RhCMVIL10 = RhCMVIL10 (rhesus cytomegalovirus (printed as …))
cellular RhIL10 [1] = target: T1, cellular RhIL10 (rhesus macaque, UniProt P51496 19-178); experiment: SPR, ratio of KD values
T1 construct: also called Rhesus IL10
Experimental: (§1) Following the association phase, dissociation was monitored for 720 seconds. The binding parameters were extracted from the sensorgrams by fitting the data to a 1:1 binding model.
(§2) Surface Plasmon Resonance (SPR): SPR data collection and analysis was performed using a Biacore T-200 (GE healthcare). […] Sensorgrams were fit to appropriate models using Biacore T-200 evaluation software version 1.0.

cellular RhIL10 [2] = target: T1, cellular RhIL10; experiment: SPR (Biacore T-200), RhIL10R1-FC captured by anti-human FC, IL10 as analyte, 1:1 model
Experimental: as §1, §2

Chain of RhCMVIL10 (rhesus cytomegalovirus (printed as …)) (P51496 whole entry): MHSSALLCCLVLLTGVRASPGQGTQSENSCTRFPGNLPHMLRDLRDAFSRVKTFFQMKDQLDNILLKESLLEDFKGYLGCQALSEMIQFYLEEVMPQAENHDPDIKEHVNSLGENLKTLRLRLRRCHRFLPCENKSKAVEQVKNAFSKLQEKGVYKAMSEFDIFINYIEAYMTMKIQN
T1 sequence (P51496 19-178 limits assumed): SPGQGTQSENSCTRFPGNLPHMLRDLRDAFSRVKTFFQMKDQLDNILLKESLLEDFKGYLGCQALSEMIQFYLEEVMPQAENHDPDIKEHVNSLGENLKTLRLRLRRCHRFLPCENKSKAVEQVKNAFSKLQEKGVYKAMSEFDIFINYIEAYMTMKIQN

B1: RhIL10R1-FC-SLS (Fc fusion)
chain: AHGTELPSPPSVWFEAEFFHHILHWTPIPNQSESTCYEVALLRYGTGRWNSISNCSQALSYDLTAVTLDLYRSNGYWARVRAVDGSRHSNWTVTNTRFSLDEVTLTVGSVKLEIHNGFILGKIQPPRPKMAPANDTYESIFRHFREYEIAIRKVPGNFTFTHKKVKHENFSLLTSGEVGEFCVQVKPSVTSRTNKGMWSKEECVSLTRQYFTVTNVGSGGGGPSVFLFPPKPKDTLMISRTPEVTCVVVDVSQEDPDVKFNWYVNGAEVHHAQTKPRETQYNSTYRVVSVLTVTHQDWLNGKEYTCKVSNKALPAPIQKTISKDKGQPREPQVYTLPPSREELTKNQVSLTCLVKGFYPSDIVVEWESSGQPENTYKTTPPVLDSDGSYFLYSKLTVDKSRWQQGNVFSCSVMHEALHNHYTQKSLSLSGGCGTPGK
notes: also called RhIL10R1-SLS; Rh10R1-FC
**Q.** What does the source list for B1?
**A.** Kd (RhCMVIL10): 0.0724 nM; koff (RhCMVIL10): 0.00017 s⁻¹; kon (RhCMVIL10): 2.35e+06 M⁻¹ s⁻¹; fold greater affinity than 1F11 (cellular RhIL10 [1]): 4.8 fold; Kd (cellular RhIL10 [2]): 0.136 nM; koff (cellular RhIL10 [2]): 0.000454 s⁻¹; kon (cellular RhIL10 [2]): 3.35e+06 M⁻¹ s⁻¹
